# From patent publication US20230235011A1 (BEIJING BEYOND BIOTECHNOLOGY, published 2023)
# B1: anti-GPC-3 antibody BY20.2 (codrituzumab) (antibody, human IgG1, kappa, V domains shown)
# VH: QVQLVQSGAEVKKPGASVKVSCKASGYTFTDYEMHWVRQAPGQGLEWMGALDPKTGDTAYSQKFKGRVTLTADKSTSTAYMELSSLTSEDTAVYYCTRFYSYTYWGQGTLVTVSS
# VL: DVVMTQSPLSLPVTPGEPASISCRSSQSLVHSNRNTYLHWYLQKPGQSPQLLIYKVSNRFSGVPDRFSGSGSGTDFTLKISRVEAEDVGVYYCSQNTHVPPTFGQGTKLEIKR
# notes: Made in-house from INN 9759; If the listing has 19, the mature range is 20-238; also called control antibody BY20.2
# B2: anti-trop-2 antibody BY43 (sacituzumab) (antibody, human IgG1, kappa, V domains shown)
# VH: QVQLQQSGSELKKPGASVKVSCKASGYTFTNYGMNWVKQAPGQGLKWMGWINTYTGEPTYTDDFKGRFAFSLDTSVSTAYLQISSLKADDTAVYFCARGGFGSSYWYFDVWGQGSLVTVSS
# VL: DIQLTQSPSSLSASVGDRVSITCKASQDVSIAVAWYQQKPGKAPKLLIYSASYRYTGVPDRFSGSGSGTDFTLTISSLQPEDFAVYYCQQHYITPLTFGAGTKVEIKR
# notes: Made in-house from INN 10418; also called control antibody BY43
# Tests used:
# GPC-3 protein = biological target: T1, GPC-3 protein (UniProt P51654 25-559, limits assumed); assay: SPR (Biacore T100, 25 C); binder captured on anti-human IgG CM5 chip, GPC-3 protein as analyte
# T1 construct: Bought antigen, used as the SPR analyte; also called Glypican-3
# trop-2 protein = biological target: T2, trop-2 protein (UniProt P09758 27-274, limits assumed); assay: SPR (Biacore T100, 25 C); binder captured on anti-human IgG CM5 chip, trop-2 protein as analyte
# T2 construct: Bought antigen, used as the SPR analyte; The printed catalogue number is doubtful
# T2 sequence (looked up): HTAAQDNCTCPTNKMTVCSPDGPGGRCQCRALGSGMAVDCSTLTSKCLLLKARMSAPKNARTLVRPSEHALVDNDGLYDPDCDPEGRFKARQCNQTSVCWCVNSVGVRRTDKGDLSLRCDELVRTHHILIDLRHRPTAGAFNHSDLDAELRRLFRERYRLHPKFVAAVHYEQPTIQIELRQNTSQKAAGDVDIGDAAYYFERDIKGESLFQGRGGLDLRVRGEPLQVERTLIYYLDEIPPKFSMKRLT
# T1 sequence (P51654 25-559 limits assumed): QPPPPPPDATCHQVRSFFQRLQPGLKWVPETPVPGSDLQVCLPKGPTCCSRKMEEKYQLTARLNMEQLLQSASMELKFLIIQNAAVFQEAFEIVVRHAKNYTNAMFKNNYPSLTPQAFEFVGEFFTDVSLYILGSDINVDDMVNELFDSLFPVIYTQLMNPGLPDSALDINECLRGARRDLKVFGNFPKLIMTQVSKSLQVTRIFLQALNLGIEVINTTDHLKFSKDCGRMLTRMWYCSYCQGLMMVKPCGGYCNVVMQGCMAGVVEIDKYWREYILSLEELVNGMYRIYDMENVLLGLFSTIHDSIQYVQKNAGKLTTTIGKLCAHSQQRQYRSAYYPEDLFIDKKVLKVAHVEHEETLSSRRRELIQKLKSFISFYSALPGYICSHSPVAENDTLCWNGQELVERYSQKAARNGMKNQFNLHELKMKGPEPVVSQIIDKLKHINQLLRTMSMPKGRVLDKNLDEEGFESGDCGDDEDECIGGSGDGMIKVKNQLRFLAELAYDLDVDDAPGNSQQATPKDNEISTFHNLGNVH
Binder,Kd (GPC-3 protein) [nM],koff (GPC-3 protein) [s⁻¹],kon (GPC-3 protein) [M⁻¹ s⁻¹],Kd (trop-2 protein) [nM],koff (trop-2 protein) [s⁻¹],kon (trop-2 protein) [M⁻¹ s⁻¹]
B1,2.08,7.57e-05,36400,,,
B2,,,,0.857,4.82e-05,56300
